Source: the supplement of paper PMC7877785
± gives the uncertainty stated by the source.

Assay: self-splicing fitness, log relative to wild type (ln ratio); higher = more splicing; Tetrahymena group I intron in knt gene, E. coli kanamycin selection, DiMSum; sequences stand for … in CUCUCU…GGAGGGAAAAGUUAUCAGGCAUGCACCUGGUAGCUAGUCUUUAAACCAAUAGAUUGCAUCGGUUUAAAAGGCAAGACCGUCAAAUUGCGGGAAAGGGGUCAACAGCCGUUCAGUACCAAGUCUCAGGGGAAACUUUGAGAUGGCCUUGCAAAGGGUAUGGUAAUAAGCUGACGGACAUGGUCCUAACCACGCAGCCAAGUCCUAAGUCAACAGAUCUUCUGUUGAUAUGGAUGCAGUUCACAGACUAAAUGUCGGUCGGGGAAGAUGUAUUCUUCUCAUAAGAUAUAGUCGGACCUCUCCUUAAUGGGAGCUAGCGGAUGAAGUGAUGCAACACUGGAGCCGCUGGGAACUAAUUUGUAUGCGAAAGUAUAUUGAUUAGUUUUGGAGUACUCGUGGUCG
Procedure, shortened: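 Pooled colonies went to amplicon sequencing on an Illumina HiSeq 2500 after six replicate transformations. The plates were LB agar with 100 μg/mL carbenicillin, 50 μM IPTG and 0.2% rhamnose, with or without 25 μg/mL kanamycin, incubated overnight at 37°C or 30°C. The E. coli BL21(DE3) library had all eight P1ex-region intron nucleotides randomised, the intron placed in the knt kanamycin-resistance gene on pET-22b(+). DiMSum fitness is the error-weighted combination of replicate fold changes, kanamycin against none, normalised to wild type.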

Sequence	self-splicing fitness (ln) (30 °C)	self-splicing fitness (ln) (37 °C)
CGGGAGCAAUAUUACGUGGC	-2.62 ± 0.21	-2.43 ± 0.36
CGGUAGCAAUAUUACGAAAC	–	-2.72 ± 0.27
CGGUAGCAAUAUUACGAAAG	-0.203 ± 0.16	-0.493 ± 0.16
CGGUAGCAAUAUUACGAGGU	-3.59 ± 0.25	-2.03 ± 0.25
CGGUAGCAAUAUUACGAUAC	-2.53 ± 0.22	–
CGGUAGCAAUAUUACGAUCC	-1.23 ± 0.22	-1.56 ± 0.34
CGGUAGCAAUAUUACGCUAC	-2.96 ± 0.47	-2.93 ± 0.43
CGGUAGCAAUAUUACGCUUA	–	-1.95 ± 0.2
CGGUAGCAAUAUUACGUACU	-1.36 ± 0.15	-0.578 ± 0.16
CGGUAGCAAUAUUACGUCAA	-1.08 ± 0.29	–
CGGUAGCAAUAUUACGUCCC	-0.348 ± 0.48	0.985 ± 0.48
CGGUAGCAAUAUUACGUGGU	-3.17 ± 0.21	-2.3 ± 0.21
CGUAAGCAAUAUUACGAAAA	-3.49 ± 0.31	-1.49 ± 0.16
CGUAAGCAAUAUUACGAUAC	–	-2.9 ± 0.47
CGUAAGCAAUAUUACGAUUA	-2.03 ± 0.23	-1.64 ± 0.32
CGUAAGCAAUAUUACGCAUA	-3.73 ± 0.34	-3.16 ± 0.21
CGUAAGCAAUAUUACGCCGC	-1.76 ± 0.45	-2.13 ± 0.42
CGUAAGCAAUAUUACGCGAC	-3.62 ± 0.37	-2.63 ± 0.42
CGUAAGCAAUAUUACGCGGC	-2.84 ± 0.25	-2.23 ± 0.3
CGUAAGCAAUAUUACGCUAU	-3.13 ± 0.27	-4.43 ± 0.42
CGUAAGCAAUAUUACGCUCC	-2.95 ± 0.41	-1.74 ± 0.48
CGUAAGCAAUAUUACGGAUG	-0.733 ± 0.091	-0.608 ± 0.12
CGUAAGCAAUAUUACGGCUA	-2.35 ± 0.41	-1.48 ± 0.33
CGUAAGCAAUAUUACGGCUC	–	-0.977 ± 0.42
CGUAAGCAAUAUUACGGGAG	-2.21 ± 0.22	-2.81 ± 0.36
CGUAAGCAAUAUUACGGGUU	-3.63 ± 0.17	-2.98 ± 0.29
CGUAAGCAAUAUUACGGUAC	-3.29 ± 0.28	-1.78 ± 0.19

Sequence	self-splicing fitness (ln) (30 °C)	self-splicing fitness (ln) (37 °C)
CGUAAGCAAUAUUACGGUCG	-0.611 ± 0.12	0.212 ± 0.14
CGUAAGCAAUAUUACGUAAA	-3.15 ± 0.24	-2.1 ± 0.22
CGUAAGCAAUAUUACGUAAG	-1.49 ± 0.1	-0.165 ± 0.092
CGUAAGCAAUAUUACGUACC	-1.94 ± 0.21	-1.76 ± 0.24
CGUAAGCAAUAUUACGUAUA	-2.48 ± 0.26	-2.21 ± 0.26
CGUAAGCAAUAUUACGUAUG	-2.17 ± 0.08	-0.311 ± 0.072
CGUAAGCAAUAUUACGUCUA	-2.78 ± 0.28	-2.03 ± 0.18
CGUAAGCAAUAUUACGUGAG	-2.17 ± 0.11	-1.09 ± 0.092
CGUAAGCAAUAUUACGUGGU	-3.19 ± 0.13	-2.72 ± 0.16
CGUAAGCAAUAUUACGUUCC	-2.63 ± 0.3	–
CGUCAGCAAUAUUACGAAUC	-3.1 ± 0.27	-0.891 ± 0.33
CGUCAGCAAUAUUACGACAU	-0.647 ± 0.012	-0.0443 ± 0.032
CGUCAGCAAUAUUACGACGU	-3.23 ± 0.17	-1.93 ± 0.14
CGUCAGCAAUAUUACGAGAU	-3.93 ± 0.21	-2.65 ± 0.17
CGUCAGCAAUAUUACGAGGG	-3.93 ± 0.1	-1.81 ± 0.099
CGUCAGCAAUAUUACGAUCC	-1.62 ± 0.086	-0.418 ± 0.13
CGUCAGCAAUAUUACGCCCC	-0.652 ± 0.24	-1.34 ± 0.3
CGUCAGCAAUAUUACGCGCG	-4.06 ± 0.39	-2.19 ± 0.36
CGUCAGCAAUAUUACGCGCU	-0.602 ± 0.18	-2.64 ± 0.32
CGUCAGCAAUAUUACGCGUU	-2.71 ± 0.14	-2.01 ± 0.18
CGUCAGCAAUAUUACGCUCU	-1.14 ± 0.12	-0.257 ± 0.12
CGUCAGCAAUAUUACGGAGC	-3.85 ± 0.42	-1.95 ± 0.26
CGUCAGCAAUAUUACGGCUG	-1.51 ± 0.12	-1.24 ± 0.23
CGUCAGCAAUAUUACGGCUU	-1.34 ± 0.11	-0.493 ± 0.099
CGUCAGCAAUAUUACGGGUG	-1.9 ± 0.091	-0.977 ± 0.11
CGUCAGCAAUAUUACGGUCA	-0.717 ± 0.08	0.201 ± 0.1
CGUCAGCAAUAUUACGGUCC	-1.34 ± 0.079	-0.173 ± 0.1

Sequence	self-splicing fitness (ln) (30 °C)	self-splicing fitness (ln) (37 °C)
CGUCAGCAAUAUUACGUAAU	-2.93 ± 0.17	-1.2 ± 0.13
CGUCAGCAAUAUUACGUCCC	-3.43 ± 0.31	-0.834 ± 0.22
CGUCAGCAAUAUUACGUGUG	-0.543 ± 0.059	-0.104 ± 0.068
CGUCAGCAAUAUUACGUUCG	-1.45 ± 0.068	-0.148 ± 0.096
CGUGAGCAAUAUUACGACCC	-1.76 ± 0.23	-0.787 ± 0.16
CGUGAGCAAUAUUACGAGGA	-3.04 ± 0.39	-1.65 ± 0.33
CGUGAGCAAUAUUACGAUGA	-3.64 ± 0.23	-2.04 ± 0.17
CGUGAGCAAUAUUACGAUGC	-0.111 ± 0.43	-2 ± 0.48
CGUGAGCAAUAUUACGCAGA	–	-1.49 ± 0.38
CGUGAGCAAUAUUACGCAGG	-1.54 ± 0.11	-2.14 ± 0.15
CGUGAGCAAUAUUACGCGGA	–	-1.62 ± 0.39
CGUGAGCAAUAUUACGGCCG	-1.92 ± 0.43	–
CGUGAGCAAUAUUACGGGGU	-3.62 ± 0.2	-3.32 ± 0.26
CGUGAGCAAUAUUACGGUAG	-1.84 ± 0.11	-1.11 ± 0.11
CGUGAGCAAUAUUACGGUAU	-3.54 ± 0.25	-3.1 ± 0.34
CGUGAGCAAUAUUACGGUGC	-4.97 ± 0.41	-3.39 ± 0.17
CGUGAGCAAUAUUACGGUGU	-3.79 ± 0.43	-1.98 ± 0.22
CGUGAGCAAUAUUACGUAGA	-3.22 ± 0.2	-2.89 ± 0.22
CGUGAGCAAUAUUACGUAGU	-4.5 ± 0.36	-2.19 ± 0.2
CGUGAGCAAUAUUACGUCAG	-1.86 ± 0.16	-0.364 ± 0.15
CGUGAGCAAUAUUACGUCGG	-0.475 ± 0.11	-0.606 ± 0.12
CGUGAGCAAUAUUACGUCUA	-2.99 ± 0.37	-1.59 ± 0.21
CGUGAGCAAUAUUACGUGCC	–	-1.78 ± 0.39
CGUGAGCAAUAUUACGUGCG	-3.21 ± 0.24	-2.6 ± 0.32
CGUGAGCAAUAUUACGUGGG	-2.91 ± 0.14	-1.99 ± 0.11
